B1: 375_E10 (antibody, V domains shown)
VH: EVQLLESGGGLVQPGGSLRLSCAASGFTFSSYSMNWVRQAPGKGLEWVSGINYNGGYTSYADSVKGRFTISRDNSKNTLYLQMNSLRAEDTAVYYCARGANWHDTALDYWGQGTLVTVSS
VL: DIQMTQSPSSLSASVGDRVTITCRASQSILSYLNWYQQKPGKAPKLVIYAATSRASGVPSRFSGSGSGTDFTLTISSLQPEDFATYYCQQSYDNPLTFGGGTKVEIK
notes: Group III
B2: 367_B04 (antibody, V domains shown)
VH: EVQLLESGGGLVQPGGSLRLSCAASGFTFDSYSMNWVRQAPGKGLEWVSGINYNSGYKSYADSVKGRFTISRDNSKNTLYLQMNSLRAEDTAVYYCARGANWHDTHLDYWGQGTLVTVSS
VL: DIQMTQSPSSLSASVGDRVTITCRASQSILSYLNWYQQKPGKAPKLLIYAATSRASGVPSRFSGSGSGTDFTLTISSLQPEDFATYYCQQSYELPLTFGGGTKVEIK
notes: Group III
B3: 367_D03 (antibody, V domains shown)
VH: EVQLLESGGGLVQPGGSLRLSCAASGFTFDSYSMNWVRQAPGKGLEWVSSINYNGGYTGYADSVKGRFTISRDNSKNTLYLQMNSLRAEDTAVYYCARGANWHDTHLDYWGQGTLVTVSS
VL: DIQMTQSPSSLSASVGDRVTITCRASQSIITYLNWYQQKPGKAPKLLIYAATSRASGVPSRFSGSGSGTDFTLTISSLQPEDFATYYCQQSYDTPLTFGGGTKVEIK
notes: Group III
B4: 367_C07 (antibody, V domains shown)
VH: EVQLLESGGGLVQPGGSLRLSCAASGFTFSSYSMNWVRQAPGKGLEWVSSINYNSGYTGYADSVKGRFTISRDNSKNTLYLQMNSLRAEDTAVYYCARGANWHDTHLDYWGQGTLVTVSS
VL: DIQMTQSPSSLSASVGDRVTITCRASQSILTYVNWYQQKPGKAPKLLIYAATSRASGVPSRFSGSGSGTDFTLTISSLQPEDFATYYCQQSYNLPLTFGGGTKVEIK
notes: Group III
B5: 367_B01 (antibody, V domains shown)
VH: EVQLLESGGGLVQPGGSLRLSCAASGFTFSSYSMNWVRQAPGKGLEWVAGINYNGGYKGYADSVKGRFTISRDNSKNTLYLQMNSLRAEDTAVYYCARGANWHDTALDYWGQGTLVTVSS
VL: DIQMTQSPSSLSASVGDRVTITCRASQSISSYVNWYQQKPGKAPKLVIYAATSRASGVPSRFSGSGSGTDFTLTISSLQPEDFATYYCQQSYSTPLTFGGGTKVEIK
notes: Group III
B6: 367_D06 (antibody, V domains shown)
VH: EVQLLESGGGLVQPGGSLRLSCAASGFTFDSYSMNWVRQAPGKGLEWVAGINYNGGYTSYADSVKGRFTISRDNSKNTLYLQMNSLRAEDTAVYYCARGANWHDTHLDYWGQGTLVTVSS
VL: DIQMTQSPSSLSASVGDRVTITCRASQSISTYLNWYQQKPGKAPKLVIYAATSLASGVPSRFSGSGSGTDFTLTISSLQPEDFATYYCQQSYNSPLTFGGGTKVEIK
notes: Group III
B7: 367_C10 (antibody, V domains shown)
VH: EVQLLESGGGLVQPGGSLRLSCAASGFTFDSYSMNWVRQAPGKGLEWVSGINYNGGYTSYADSVKGRFTISRDNSKNTLYLQMNSLRAEDTAVYYCARGANWHDTALDYWGQGTLVTVSS
VL: DIQMTQSPSSLSASVGDRVTITCRASQSIVSYVNWYQQKPGKAPKLLIYAVTSRASGVPSRFSGSGSGTDFTLTISSLQPEDFATYYCQQSYETPLTFGGGTKVEIK
notes: Group III
B8: 367_B12 (antibody, V domains shown)
VH: EVQLLESGGGLVQPGGSLRLSCAASGFTFSSYGMHWVRQAPGKGLEWVASINYNGGYKSYADSVKGRFTISRDNSKNTLYLQMNSLRAEDTAVYYCARGANWHDTHLDYWGQGTLVTVSS
VL: DIQMTQSPSSLSASVGDRVTITCRASQSILSYVNWYQQKPGKAPKLVIYAATSLASGVPSRFSGSGSGTDFTLTISSLQPEDFATYYCQQSYDTPLTFGGGTKVEIK
notes: Group III
B9: 367_E05 (antibody, V domains shown)
VH: EVQLLESGGGLVQPGGSLRLSCAASGFTFSSYGMNWVRQAPGKGLEWVAGINYNGGYTSYADSVKGRFTISRDNSKNTLYLQMNSLRAEDTAVYYCARGANWHDTHLDYWGQGTLVTVSS
VL: DIQMTQSPSSLSASVGDRVTITCRASQSILSYLNWYQQKPGKAPKLLIYAATSRHSGVPSRFSGSGSGTDFTLTISSLQPEDFATYYCQQSYDSPLTFGGGTKVEIK
notes: Group III
B10: 367_D12 (antibody, V domains shown)
VH: EVQLLESGGGLVQPGGSLRLSCAASGFTFSSYSMNWVRQAPGKGLEWVSSINYNGGYTGYADSVKGRFTISRDNSKNTLYLQMNSLRAEDTAVYYCARGANWHDTHLDYWGQGTLVTVSS
VL: DIQMTQSPSSLSASVGDRVTITCRASQSIVSYVNWYQQKPGKAPKLVIYAATSRASGVPSRFSGSGSGTDFTLTISSLQPEDFATYYCQQSYESPLTFGGGTKVEIK
notes: Group III
B11: 367_A10 (antibody, V domains shown)
VH: EVQLLESGGGLVQPGGSLRLSCAASGFTFSSYGMNWVRQAPGKGLEWVAGINYNSGYTSYADSVKGRFTISRDNSKNTLYLQMNSLRAEDTAVYYCARGANWHDTHLDYWGQGTLVTVSS
VL: DIQMTQSPSSLSASVGDRVTITCRASQSIITYVNWYQQKPGKAPKLLIYAATSLASGVPSRFSGSGSGTDFTLTISSLQPEDFATYYCQQSYDLPLTFGGGTKVEIK
notes: Group III
B12: 367_F01 (antibody, V domains shown)
VH: EVQLLESGGGLVQPGGSLRLSCAASGFTFDSYSMNWVRQAPGKGLEWVSNINYNGGYKSYADSVKGRFTISRDNSKNTLYLQMNSLRAEDTAVYYCARGANWHDTHLDYWGQGTLVTVSS
VL: not shown
notes: Group III
B13: 367_A12 (antibody, V domains shown)
VH: EVQLLESGGGLVQPGGSLRLSCAASGFTFSSYGMNWVRQAPGKGLEWVSGINYNSGYTSYADSVKGRFTISRDNSKNTLYLQMNSLRAEDTAVYYCARGANWHDTHLDYWGQGTLVTVSS
VL: DIQMTQSPSSLSASVGDRVTITCRASQSILSYLNWYQQKPGKAPKLLIYAATSLHSGVPSRFSGSGSGTDFTLTISSLQPEDFATYYCQQSYNNPLTFGGGTKVEIK
notes: Group III
B14: 367_D08 (antibody, V domains shown)
VH: EVQLLESGGGLVQPGGSLRLSCAASGFTFSDYSMNWVRQAPGKGLEWVAGINYNGGYTSYADSVKGRFTISRDNSKNTLYLQMNSLRAEDTAVYYCARGANWHDTHLDYWGQGTLVTVSS
VL: DIQMTQSPSSLSASVGDRVTITCRASQSILSYLNWYQQKPGKAPKLVIYAATSRHSGVPSRFSGSGSGTDFTLTISSLQPEDFATYYCQQSDDLPLTFGGGTKVEIK
notes: Group III

How the values were obtained:
[1] = target: T1, biotinylated goat anti-human kappa light chain; assay: ELISA, positive control
T1 construct: positive control of the ELISA
Protocol: The binding of ACVR2A-specific monoclonal antibodies to human ACVR2A, mouse ACVR2A, biotinylated goat anti-human kappa light chain (positive control) and human Fc (negative control) were determined by ELISA.

human ACVR2A = target: T2, human ACVR2A (human, UniProt P27037 20-135, limits assumed); assay: ELISA
T2 construct: coated antigen of the initial ELISA; also called activin receptor, type II A
In short: (§1)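 ELISA measured binding of ACVR2A-specific monoclonal antibodies to human and mouse ACVR2A. Biotinylated goat anti-human kappa light chain served as positive control and human Fc as negative control.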

mouse ACVR2A = target: T3, mouse ACVR2A (mouse, UniProt P27038 20-135, limits assumed); assay: ELISA
T3 construct: coated antigen of the initial ELISA
In short: as §1
Note: test concentration or dose not given here.

T2 sequence (P27037 20-135 limits assumed): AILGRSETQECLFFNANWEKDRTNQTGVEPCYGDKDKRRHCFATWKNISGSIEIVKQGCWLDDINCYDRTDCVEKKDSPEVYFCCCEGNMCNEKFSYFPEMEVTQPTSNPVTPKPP
T3 sequence (P27038 20-135 limits assumed): as the sequence (P27037 20-135 limits assumed) above, with K20R, V73I counted along it

| Binder | optical density [1] [OD] | optical density (human ACVR2A) [OD] | optical density (mouse ACVR2A) [OD] |
| --- | --- | --- | --- |
| B1 | 3.29 | 3.69 | 3.79 |
| B2 | 3.34 | 2.66 | 3.1 |
| B3 | 3.46 | 2.59 | 2.45 |
| B4 | 3.41 | 2.47 | 2.52 |
| B5 | 3.67 | 2.84 | 2.91 |
| B6 | 3.25 | 2.04 | 2.35 |
| B7 | 3.39 | 2.53 | 2.61 |
| B8 | 3.75 | 3.02 | 3.03 |
| B9 | 3.47 | 2.35 | 2.64 |
| B10 | 3.57 | 2.44 | 2.69 |
| B11 | 3.39 | 1.89 | 2.16 |
| B12 | 3.72 | 2.42 | 2.76 |
| B13 | 3.65 | 2.44 | 2.42 |
| B14 | 3.5 | 2.18 | 2.37 |
